Ends that are not written are not given here.
Experiments:
[1] = target: T1, human recombinant annexin A2 (human, UniProt P07355 1-339); test: phage binding assay; recombinant proteins in 96-well plates; iPhage input 10^9 TU/well; bound phage particles quantified by bacterial infection; TU normalised on an insertless iPhage; conditions: both partners purified
T1 construct: annexin A2, human, recombinant; also called ANXA2; source: bought: Amprox

[2] = target: T2, GST-fused recombinant annexin A2 (human, UniProt P07355 1-339); test: as above; conditions: both partners purified
T2 construct: May be the same protein as the annexin A2 bought from Amprox
T2 sequence (P07355 whole entry, the tested form may be a part): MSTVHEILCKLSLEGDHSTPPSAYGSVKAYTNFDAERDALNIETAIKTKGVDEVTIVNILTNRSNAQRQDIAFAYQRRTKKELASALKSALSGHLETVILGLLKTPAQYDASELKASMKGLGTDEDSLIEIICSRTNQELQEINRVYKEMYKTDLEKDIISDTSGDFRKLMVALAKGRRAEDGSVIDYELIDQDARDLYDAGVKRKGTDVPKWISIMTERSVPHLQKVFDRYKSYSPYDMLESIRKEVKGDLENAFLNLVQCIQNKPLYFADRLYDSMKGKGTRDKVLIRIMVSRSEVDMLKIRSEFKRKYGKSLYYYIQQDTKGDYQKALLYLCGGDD

T1 sequence (P07355 whole entry): as the sequence (P07355 whole entry, the tested form may be a part) above

B1: LGRFYAASG-displaying iPhage (peptide)
peptide: LGRFYAASG
modifications: also: phage-displayed
notes: peptide selected from the X4YX4 iPhage random peptide library in KS1767 cells; the alanine variants were cloned into the fUSE5 vector; source: recovered and amplified by E. coli infection, and purified
binding result [1]: binds | binding result [2]: binds

Source: publication PMC5484684, “Intracellular targeting of annexin A2 inhibits tumor cell adhesion, migration, and in vivo grafting” (Scientific Reports, 2017)
